From patent US20210163590A1 (WUXI BIOLOGICS IRELAND, published 2021) come the findings set out here.

As usually defined, the koff is the rate constant with which the complex falls apart. By Kd is commonly meant the equilibrium constant for the complex coming apart. By kon is commonly meant a measure of how fast the partners come together. In general, EC50 refers to the concentration at which the effect is half-maximal.

Assay [1] has as its target T1, hTIM-3.ECD.his (human, UniProt Q8TDQ0 22-202).
T1 construct: extracellular domain; also called W340-hPro1.ECD.His; human TIM-3 (SPR analyte); not shown: C-terminal His tag
Nature of the assay: SPR Koff ranking; antibody captured on anti-human IgG GLM chip, analyte W340-hPro1.ECD.His.

Assay [2] has as its target T1, hTIM-3.ECD.his. Nature of the assay: SPR, full kinetics.
Another assay has as its target T2, human TIM-1 (human, UniProt Q96D42 21-290, limits assumed).
T2 sequence (looked up): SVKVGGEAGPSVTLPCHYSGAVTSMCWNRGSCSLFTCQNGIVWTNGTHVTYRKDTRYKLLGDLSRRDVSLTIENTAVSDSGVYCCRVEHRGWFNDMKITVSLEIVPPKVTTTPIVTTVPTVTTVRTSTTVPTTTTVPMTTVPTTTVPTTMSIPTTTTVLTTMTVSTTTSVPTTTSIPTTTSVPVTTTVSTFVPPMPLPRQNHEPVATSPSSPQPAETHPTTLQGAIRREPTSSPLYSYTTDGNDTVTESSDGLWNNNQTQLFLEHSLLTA
Nature of the assay: ELISA on plate-coated human TIM-1. On the technique in general: In an ELISA, binding on a coated surface is turned into a signal by an enzyme label.

In assay [3] the target is T3, cynomolgus monkey TIM-3 on the cell surface (cynomolgus monkey, UniProt A0A2K5U3G7 22-294).
T3 construct: whole, on cells; also called cyno TIM-3-expressing transfectant cells
T3 sequence: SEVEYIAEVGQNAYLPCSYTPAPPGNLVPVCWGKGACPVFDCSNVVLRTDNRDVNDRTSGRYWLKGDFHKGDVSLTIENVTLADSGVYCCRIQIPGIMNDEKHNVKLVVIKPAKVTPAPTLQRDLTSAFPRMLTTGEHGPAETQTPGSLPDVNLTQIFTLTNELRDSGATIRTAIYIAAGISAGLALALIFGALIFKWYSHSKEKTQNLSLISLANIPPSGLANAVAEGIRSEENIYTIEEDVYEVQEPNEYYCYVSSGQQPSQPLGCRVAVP
The experiment in a line: flow cytometry on cyno TIM-3-expressing transfectant cells.
Description: Cross species binding (FACS): the binding of TIM-3 antibodies to cynomolgus monkey TIM-3 was determined by FACS. […] MFI of the cells was measured by a flow cytometer and analyzed by FlowJo.

The next assay concerns the target T4, W340-cynoPro1.ECD.Fc (cynomolgus monkey, UniProt A0A2K5U3G7 22-195).
T4 construct: extracellular domain; also called cynomolgus monkey TIM-3.ECD protein; not shown: C-terminal Fc tag
T4 sequence: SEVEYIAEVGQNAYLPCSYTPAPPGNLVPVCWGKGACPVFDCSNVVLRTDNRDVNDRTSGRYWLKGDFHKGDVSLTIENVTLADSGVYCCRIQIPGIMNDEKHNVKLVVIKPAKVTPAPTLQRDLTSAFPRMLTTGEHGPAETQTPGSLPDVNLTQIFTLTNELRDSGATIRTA
Nature of the assay: SPR (Biacore 8K); cyno TIM-3 ECD on CM5 chip, antibody as analyte, 1:1 fit.

The target of the next assay is T5, human TIM-4 (human, UniProt Q96H15 25-314, limits assumed).
T5 sequence (looked up): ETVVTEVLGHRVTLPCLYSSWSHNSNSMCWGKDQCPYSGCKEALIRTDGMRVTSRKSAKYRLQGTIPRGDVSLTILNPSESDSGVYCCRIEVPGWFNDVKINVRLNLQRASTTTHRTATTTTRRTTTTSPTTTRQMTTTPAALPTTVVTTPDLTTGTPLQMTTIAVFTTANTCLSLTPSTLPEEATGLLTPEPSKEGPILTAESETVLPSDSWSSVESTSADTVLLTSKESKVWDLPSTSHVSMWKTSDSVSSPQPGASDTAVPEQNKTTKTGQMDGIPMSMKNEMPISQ
Nature of the assay: ELISA on plate-coated human TIM-4.

Excerpt for W340-cynoPro1.ECD.Fc: Full kinetic binding affinity to cynomolgus monkey TIM-3 tested by surface Plasmon resonance (SPR): the sensor chip (CM5) was pre-coated with cynomolgus monkey TIM-3.ECD protein. […] The association and dissociation curve was fit to a 1:1 kinetics mode using Biacore 8K software (Table 8).
Excerpt for human TIM-1: (§1) The binding of the antibodies to the plates was detected by corresponding HRP-conjugated 2nd antibodies (see FIGS. 3A-3C).
Excerpt for human TIM-4: as §1

B1: chimeric W3402-x (antibody, human IgG4, V domains shown)
VH: QVQLKESGPGLVQSSQTLSLTCTVSGFSLTNYGVGWIRQPPGKGLEWIAIMTSGGSTYYNSALRARLNINRDTSKSQVFLEVNSLHTEDTATYFCTRDGTTVETLFDYWGQGLMVTVSS
VL: DVVLTQTPSTLSAIIGQSVSISCRSSQSLSDSAGITYLYWYLQRPGQSPQLLIYLASNLGSGVPNRFSGSGSGTDFTLKISGVEPEDLGVYHCMQGIHVPLTFGSGTKLEIK
notes: also called parental chimeric W3402-x; Parental xAb
In the assay with hTIM-3.ECD.his [1], B1 had a koff of 1.95e-06 s⁻¹. In the assay with hTIM-3.ECD.his [2], this molecule displayed a Kd of 9.37 pM, an off-rate constant (koff) of 2.12e-05 s⁻¹ and a kon of 2.26e+06 M⁻¹ s⁻¹.

B2: W3402-2.131.17-z3 (antibody, IgG4, V domains shown)
VH: QVQLQESGPGLVKPSETLSLTCTVSGFSLTNYGVGWIRQPPGKGLEWIGIMTSGGSTYYNSALRARVTINRDTSKNQFSLKLSSVTAADTAVYYCTRDGTTVETLFDYWGQGTMVTVSS
VL: DIVMTQTPLSLSVTPGQPASISCRSSQSLSDSAGITYLYWYLQKPGQSPQLLIYLASNLGSGVPDRFSGSGSGTDFTLKISRVEAEDVGVYYCMQGIHVPLTFGQGTKLEIK
notes: Humanized monoclonal antibody with a kappa light chain; also called W3402-z3; humanized variant W3402-z3
For the molecule B2, the binding result in the assay with human TIM-1 and with human TIM-4 was “no binding (tested: 66.7 nM)” throughout. Also, a half-maximal effect in assay [3] (EC50) was put at 0.32 nM. In the assay with W340-cynoPro1.ECD.Fc, the Kd was 0.0209 nM.
